Results published in publication PMC8384837, “Expanding the binding specificity for RNA recognition by a PUF domain”.

Legend:
PUM1 PUF domain [1] = target: T1, PUM1 PUF domain (Homo sapiens, UniProt Q14671 828-1176); assay: EMSA; 10 mM HEPES pH 7.3, 50 mM NaCl, 2 mM DTT, 0.05% Tween 20, 0.1 mg/mL BSA, 0.1 mg/mL tRNA; on ice; 10 nM RNA, 0-1 uM protein; conditions: tags: GST cleaved (HRV3C); label: 32P
[2] = target: Pumilio-1 PUF domain wild type (human, UniProt Q14671 828-1168); assay: EMSA; 10 mM HEPES pH 7.3, 50 mM NaCl, 2 mM DTT, 0.05% Tween 20, 0.1 mg/ml BSA, 0.1 mg/ml yeast tRNA; ~10 nM RNA, 0-1 uM protein, 1 h on ice; 1.2% agarose gel, 1x TBE, room temperature; conditions: protein: recombinant; tags: N-terminal GST (pGEX-6P-1) removed by HRV3C protease; label: 5' 32P
Sequence of Pumilio-1 PUF domain wild type (Q14671 828-1168): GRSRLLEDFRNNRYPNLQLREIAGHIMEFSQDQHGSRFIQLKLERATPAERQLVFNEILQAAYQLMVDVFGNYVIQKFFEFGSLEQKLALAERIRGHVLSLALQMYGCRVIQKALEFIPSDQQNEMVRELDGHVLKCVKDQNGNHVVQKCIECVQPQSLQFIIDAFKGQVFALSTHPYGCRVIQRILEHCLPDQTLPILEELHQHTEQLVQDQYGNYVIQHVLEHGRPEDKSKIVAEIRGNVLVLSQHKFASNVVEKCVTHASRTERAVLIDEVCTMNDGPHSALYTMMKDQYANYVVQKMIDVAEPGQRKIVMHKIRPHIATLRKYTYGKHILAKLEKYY

PUM1 PUF domain [3] = target: T1, PUM1 PUF domain; assay: EMSA; 10 mM HEPES pH 7.3, 50 mM NaCl, 2 mM DTT, 0.05% Tween 20, 0.1 mg/mL BSA, 0.1 mg/mL tRNA; on ice; 10 nM RNA, 0-1 uM protein; conditions: tags: GST cleaved (HRV3C); label: 32P; remark: listed apart in the source
[4] = target: T2, PUM1 PUF domain R3-THE R4-TFR (Homo sapiens, UniProt Q14671 828-1176, C935T;R936H;Q939E;N971T;H972F;Q975R); assay: as above; conditions: tags: GST cleaved (HRV3C); label: 32P
T2 sequence (Q14671 828-1176 C935T/R936H/Q939E/N971T/H972F/Q975R): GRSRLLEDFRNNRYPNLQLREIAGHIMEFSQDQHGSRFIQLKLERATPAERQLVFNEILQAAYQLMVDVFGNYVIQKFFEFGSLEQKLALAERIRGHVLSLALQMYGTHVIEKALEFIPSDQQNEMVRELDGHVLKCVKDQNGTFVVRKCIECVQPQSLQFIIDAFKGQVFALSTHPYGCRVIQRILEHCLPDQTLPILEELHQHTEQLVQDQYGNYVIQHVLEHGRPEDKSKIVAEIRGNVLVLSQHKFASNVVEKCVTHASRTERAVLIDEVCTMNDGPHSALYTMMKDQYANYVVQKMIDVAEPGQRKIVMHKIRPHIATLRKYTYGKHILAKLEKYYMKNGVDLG

[5] = target: PUM1 PUF domain R1-QFR R2-VFQ (Homo sapiens, UniProt Q14671 828-1176, S863Q;R864F;Q867R;N899V;Y900F); assay: as above; conditions: tags: GST cleaved (HRV3C); label: 32P
Sequence of PUM1 PUF domain R1-QFR R2-VFQ (Q14671 828-1176 S863Q/R864F/Q867R/N899V/Y900F): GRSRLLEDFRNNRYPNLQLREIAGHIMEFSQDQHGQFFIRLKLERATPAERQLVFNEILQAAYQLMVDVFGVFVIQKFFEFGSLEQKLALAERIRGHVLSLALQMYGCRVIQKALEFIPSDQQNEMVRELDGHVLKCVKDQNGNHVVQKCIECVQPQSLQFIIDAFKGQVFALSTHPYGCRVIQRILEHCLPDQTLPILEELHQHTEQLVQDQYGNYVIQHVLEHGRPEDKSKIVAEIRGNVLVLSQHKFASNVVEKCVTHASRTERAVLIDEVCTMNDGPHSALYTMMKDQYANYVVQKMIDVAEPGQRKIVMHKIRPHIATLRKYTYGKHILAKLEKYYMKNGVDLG

[6] = target: T2, PUM1 PUF domain R3-THE R4-TFR; assay: yeast three-hybrid, YBZ-1, SC-Leu-His + 0.5 mM 3-AT, 4 days; conditions: tags: N-Gal4 AD-HA kept; label: inside an RPR1-promoter hybrid RNA with tandem MS2 sites
Outline: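 A centromeric plasmid in strain YBZ-1 co-expressed Pumilio-1 PUF domain libraries, randomized at the three base-contacting residues of each repeat, with matching RNA elements; the strain carries a LexA–MS2 coat fusion and a HIS3 reporter. After four days on SC-Leu (input) or SC-Leu-His + 0.5 mM 3-AT (selection), the repeat regions were PCR-amplified and Illumina-sequenced. The interaction score is the log change in variant frequency from input to selection, using log2 and a pseudocount of 1 where absent.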

T1 sequence (Q14671 828-1176): as the sequence (Q14671 828-1176 S863Q/R864F/Q867R/N899V/Y900F) above, with Q36S, F37R, R40Q, V72N, F73Y counted along it

B1: UGUAAAAC (ssRNA)
RNA: GGUAAGUGUAAAACGUCUGCAU
- qualitative (PUM1 PUF domain [1]): > 1000 nM

B2: QFR/VFQ target RNA (ssRNA)
RNA: GGUAAGUGUAAAACGUCUGCAU
- binding result [2]: no binding

B3: UGUAAAUA (ssRNA)
RNA: GGUAAGUGUAAAUAGUCUGCAU
- Kd (PUM1 PUF domain [3]): ~0.08 µM
- qualitative [4]: > 1000 nM
- qualitative [5]: > 1000 nM

B4: wild-type NRE RNA (ssRNA)
RNA: GGUAAGUGUAAAUAGUCUGCAU
- Kd [2]: ~0.08 µM

B5: UGUACGUA (ssRNA)
RNA: GGUAAGUGUACGUAGUCUGCAU
- qualitative (PUM1 PUF domain [1]): > 1000 nM

B6: UGUACGUA (ssRNA)
RNA: GGCUAGAACUAGUGGAUCCCCCGGCGCCCGGCGGCUCGAGCCCGGGUAAGUGUACGUAGUCUGCAUGCCGCCGGGCGCCAUGCCUGCAGGUCGACUCUAGAAAACAUG
- binding signal [6]: 6.65 log2 enrichment (interaction score)
